Paper PMC11367644, “Structural basis for TNIP1 binding to FIP200 during mitophagy” (The Journal of Biological Chemistry, 2024)
Read-outs that look alike come from different tables or passages of the source. Square brackets hold non-standard residues; d marks the D form. Ends that are not written are not given here. Peptide text beside a SMILES is read from it. pS = N[C@@H](COP(=O)(O)O)C(=O)O

What was measured:
TNIP1_pS123 peptide = assay: ITC
FIP200 claw domain (WT) = biological target: T1, FIP200 claw domain (WT) (Homo sapiens, UniProt Q8TDY2); assay: ITC of TNIP1/CCPG1 FIR peptides with FIP200 claw domain WT; conditions: FIP200 claw WT 0.25 mM, peptide 4 mM, 20 °C, buffer B (50 mM NaH2PO4, 150 mM NaCl, pH 7.0), single binding site model, fitted value ± SD, N.D. = no detectable binding
T1 construct: human FIP200 claw domain1490–1594 was cloned; SUMO (N, cleaved yes); made in house; host or cells: Escherichia coli Rosetta (DE3)
Method: (§1) DNA fragment of human FIP200 claw domain1490–1594 was cloned into a modified pET28a (Novagen) plasmid, which contained an N-terminal SUMO-tag and a ULP1 protease cleavage site. All mutants were generated using a MutanBEST Kit (TaKaRa) and confirmed by DNA sequencing. The proteins were expressed in Escherichia coli Rosetta (DE3) cells (Novagen) cultured in LB medium at 37 °C to A600 = 1.0 and then shifted to 16 °C for 24 h after induction with 0.2 mM IPTG. Bacterial pellets were resuspended in buffer A (50 mM NaH2PO4 and 1 M NaCl, pH 7.0) and lysed by sonication. The crude lysate was then centrifuged at 14,000 rpm for 30 min at 4 °C. The supernatant was applied to a Ni-NTA column (QIAGEN), followed by size-exclusion chromatography using a Superdex 200 (GE Healthcare) column. After cleavage with ULP1 protease overnight at 16 °C to remove the SUMO-tag, an additional purification step was performed with a HiTrap SP FF column. The purified protein was concentrated to ∼20 mg/ml in buffer B (50 mM NaH2PO4, 150 mM NaCl, pH 7.0) and stored at −80 °C.
(§2) ITC assays were performed on a Microcal PEAQ-ITC instrument (Malvern) at 20 °C. The concentrations of proteins were determined spectrophotometrically. […] Thermodynamic data were analyzed with a single binding site model using MicroCal PEAQ-ITC Analysis Software provided by the manufacturer (Malvern).

[1] = test system: FIP200 claw domain / p-CCPG1 FIR2 complex; assay: Competitive fluorescence polarization: displacement of FITC-pCCPG1 FIR2 from FIP200 claw domain; format: binding, human; conditions: fit of Equation 3 to competitive FP data; FIP200 claw 4 μM, 50 nM FITC-pCCPG1 FIR2, buffer B, triplicate
Source text: Next, we investigated the binding of TNIP1 peptides to FIP200 in distinct states while competing with p-CCPG1 FIR2 peptide. Assuming that in solution, there is a thermodynamic equilibrium as expressed in Equation 1:(1) FIP200−TNIP1_pS123⇆w2u2FIP200⇄w1u1FIP200/p−CCPG1FIR2 where u1 and u2 represent the rates of forming the FIP200/p-CCPG1 FIR2 and FIP200-TNIP1_pS123 binding complexes, respectively, and w1 or w2 is the corresponding dissociation rate, then the probability of forming FIP200/p-CCPG1 FIR2 ( P1 ) can be expressed in the following form:(2) P1=u1w2/w1w2+u1w2+[…]
We further assumed that the binding process is diffusion-controlled, meaning that u1 and u2 are proportional to the concentrations of p-CCPG1 FIR2 and TNIP1_pS123, respectively. In addition, w1 and w2 are determined by the activation barrier in the dissociation free energy profile using the transition state theory. Consequently, the following two relations hold. […]
For competitive FP experiments, FIP200 claw domain at 4 μM and 50 nM FITC-pCCPG1 FIR2 in buffer B were mixed with increasing concentrations of unlabeled TNIP1_FIR^long or TNIP1 FIR_pS123^long peptides, respectively. The samples were measured with the CLARIOsta plate reader with FITC-fluorescence polarization filter set. […]

[2] = biological target: T2, FIP200 claw domain Y1564A (Homo sapiens, UniProt Q8TDY2, Y1564A); assay: ITC with FIP200 claw domain mutant Y1564A; conditions: 20 °C, buffer B pH 7.0, N.D. = no detectable binding
T2 construct: human FIP200 claw domain1490–1594 was cloned; SUMO (N, cleaved yes); made in house; host or cells: Escherichia coli Rosetta (DE3)
T2 sequence (Q8TDY2 1490-1594 Y1564A): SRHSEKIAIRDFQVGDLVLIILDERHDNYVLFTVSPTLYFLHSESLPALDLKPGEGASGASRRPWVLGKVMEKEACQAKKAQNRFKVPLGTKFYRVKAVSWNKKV
Method: as §1, §2

[3] = biological target: T3, FIP200 claw domain K1568A (Homo sapiens, UniProt Q8TDY2, K1568A); assay: ITC with FIP200 claw domain mutant K1568A; format: binding; conditions: 20 °C, buffer B pH 7.0, fitted value ± error
T3 construct: human FIP200 claw domain1490–1594 was cloned; SUMO (N, cleaved yes); made in house; host or cells: Escherichia coli Rosetta (DE3)
T3 sequence (Q8TDY2 1490-1594 K1568A): as the sequence (Q8TDY2 1490-1594 Y1564A) above, with A75Y, K79A counted along it
Method: as §1, §2

[4] = biological target: T4, FIP200 claw domain K1569A (Homo sapiens, UniProt Q8TDY2, K1569A); assay: ITC with FIP200 claw domain mutant K1569A; conditions: 20 °C, buffer B pH 7.0, N.D. = no detectable binding
T4 construct: human FIP200 claw domain1490–1594 was cloned; SUMO (N, cleaved yes); made in house; host or cells: Escherichia coli Rosetta (DE3)
T4 sequence (Q8TDY2 1490-1594 K1569A): as the sequence (Q8TDY2 1490-1594 Y1564A) above, with A75Y, K80A counted along it
Method: as §1, §2

[5] = biological target: T5, FIP200 claw domain R1573E (Homo sapiens, UniProt Q8TDY2, R1573E); assay: ITC with FIP200 claw domain mutant R1573E; conditions: 20 °C, buffer B pH 7.0, N.D. = no detectable binding
T5 construct: human FIP200 claw domain1490–1594 was cloned; SUMO (N, cleaved yes); made in house; host or cells: Escherichia coli Rosetta (DE3)
T5 sequence (Q8TDY2 1490-1594 R1573E): as the sequence (Q8TDY2 1490-1594 Y1564A) above, with A75Y, R84E counted along it
Method: as §1, §2

[6] = biological target: T6, FIP200 claw domain F1574A (Homo sapiens, UniProt Q8TDY2, F1574A); assay: ITC with FIP200 claw domain mutant F1574A; conditions: 20 °C, buffer B pH 7.0, N.D. = no detectable binding
T6 construct: human FIP200 claw domain1490–1594 was cloned; SUMO (N, cleaved yes); made in house; host or cells: Escherichia coli Rosetta (DE3)
T6 sequence (Q8TDY2 1490-1594 F1574A): as the sequence (Q8TDY2 1490-1594 Y1564A) above, with A75Y, F85A counted along it
Method: as §1, §2

[7] = biological target: T7, FIP200 claw domain F1582A (Homo sapiens, UniProt Q8TDY2, F1582A); assay: ITC with FIP200 claw domain mutant F1582A; conditions: 20 °C, buffer B pH 7.0, N.D. = no detectable binding
T7 construct: human FIP200 claw domain1490–1594 was cloned; SUMO (N, cleaved yes); made in house; host or cells: Escherichia coli Rosetta (DE3)
T7 sequence (Q8TDY2 1490-1594 F1582A): as the sequence (Q8TDY2 1490-1594 Y1564A) above, with A75Y, F93A counted along it
Method: as §1, §2

[8] = biological target: the molecule itself; assay: crystal structure; FIP200 claw and TNIP1 FIR peptide mixed at a 1:5 molar ratio, 15 mg/ml; vapor diffusion at 16 °C or 20 °C; molecular replacement
[9] = biological target: T8, human FIP200 claw domain (1490-1594) (human, UniProt Q8TDY2 1490-1594); assay: ITC
T8 chain: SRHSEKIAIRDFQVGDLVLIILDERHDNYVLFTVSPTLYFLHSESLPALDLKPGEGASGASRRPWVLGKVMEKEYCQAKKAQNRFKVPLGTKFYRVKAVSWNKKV

[10] = biological target: T9, FIP200 claw domain (1490-1594) (human, UniProt Q8TDY2 1490-1594); assay: ITC; peptide (4 mM) injected into FIP200 claw protein (0.25 mM); 20 °C; buffer B (50 mM NaH2PO4, 150 mM NaCl, pH 7.0); single binding site model
T9 construct: the ITC N counts peptide per claw chain; also called FIP200 claw domain WT; WT; source: E. coli Rosetta (DE3), purified (Ni-NTA, Superdex 200, HiTrap SP FF); not shown: SUMO, N-terminal, cleaved

[11] = biological target: T10, FIP200 claw domain (1490-1594) R1514A (human, UniProt Q8TDY2 1490-1594, R1514A); assay: as above; conditions: both partners purified
T10 construct: source: E. coli Rosetta (DE3), purified (Ni-NTA, Superdex 200, HiTrap SP FF); not shown: SUMO, N-terminal, cleaved

[12] = biological target: T11, FIP200 claw domain (1490-1594) D1516A (human, UniProt Q8TDY2 1490-1594, D1516A); assay: as above; conditions: both partners purified
T11 construct: source: E. coli Rosetta (DE3), purified (Ni-NTA, Superdex 200, HiTrap SP FF); not shown: SUMO, N-terminal, cleaved

[13] = biological target: T12, FIP200 claw domain (1490-1594) Q1566A (human, UniProt Q8TDY2 1490-1594, Q1566A); assay: as above; conditions: both partners purified
T12 construct: source: E. coli Rosetta (DE3), purified (Ni-NTA, Superdex 200, HiTrap SP FF); not shown: SUMO, N-terminal, cleaved

[14] = biological target: T13, FIP200 claw domain (1490-1594) K1568A (human, UniProt Q8TDY2 1490-1594, K1568A); assay: as above; conditions: both partners purified
T13 construct: source: E. coli Rosetta (DE3), purified (Ni-NTA, Superdex 200, HiTrap SP FF); not shown: SUMO, N-terminal, cleaved

## human FIP200 claw domain (1490-1594) (from UniProt Q8TDY2) Q1566A
TNIP1_pS123 peptide
  ratio to parent: 0.79

## SSGTSSEFEVV [TNIP1]
FIP200 claw domain (WT)
  KD: no detectable binding affinity

## SSGTSSEFEVVTPEEQ [TNIP1^long, unmodified TNIP1 FIR peptide with an elongated C terminus]
FIP200 claw domain (WT)
  KD: Weak binding
[1]
  a0 (constant of Equation 3, y1 = 1/(1+a0[TNIP1])): 0.0006 µM⁻¹

## CC(C)[C@H](NC(=O)[C@@H](NC(=O)[C@H](CCC(=O)O)NC(=O)[C@H](Cc1ccccc1)NC(=O)[C@H](CCC(=O)O)NC(=O)[C@H](COP(=O)(O)O)NC(=O)[C@H](CO)NC(=O)[C@@H](NC(=O)CNC(=O)[C@H](CO)NC(=O)[C@@H](N)CO)[C@@H](C)O)C(C)C)C(=O)O [TNIP1_pS123] (H-SSGTS[pS]EFEVV-OH)
[2]
  KD: significantly abolished
[3]
  KD: Weak binding
[4]
  KD: significantly abolished
[5]
  KD: significantly abolished
[6]
  KD: significantly abolished
[7]
  KD: significantly abolished

B1: human FIP200 claw domain (1490-1594) (domain or fragment, UniProt Q8TDY2 1490-1594, looked up)
chain: SRHSEKIAIRDFQVGDLVLIILDERHDNYVLFTVSPTLYFLHSESLPALDLKPGEGASGASRRPWVLGKVMEKEYCQAKKAQNRFKVPLGTKFYRVKAVSWNKKV
notes: Forms a homodimer in the crystals; source: E. coli Rosetta (DE3), purified (Ni-NTA, Superdex 200, HiTrap SP FF); not shown: SUMO, N-terminal, cleaved
[8]
  binding result: binds

## SSGT[pS][pS]EFEVV [TNIP1_pS122pS123 peptide]
[9]
  Kd: 195 µM
[10]
  stoichiometry N: 1.33

## SSGT[pS]SEFEVV [TNIP1_pS122 peptide]
[9]
  Kd: 260 µM
[10]
  stoichiometry N: 0.96

B2: TNIP1_pS123 peptide (peptide)
peptide: SSGTS[pS]EFEVV
notes: FIR motif of TNIP1; source: synthetic peptide (GL Biochem, Shanghai)
[9]
  Kd: 160 µM
[10]
  stoichiometry N: 1.01
[11]
  Kd: 178 µM
  stoichiometry N: 1.48
[12]
  Kd: 175 µM
  stoichiometry N: 1.18
[13]
  Kd: 126 µM
  stoichiometry N: 1.49

B3: CCPG1 FIR2 peptide (unmodified) (peptide)
peptide: TASDDSDIVTLEPPK
notes: FIR2 motif of the autophagy receptor CCPG1; source: synthetic peptide (GL Biochem, Shanghai)
[10]; both partners purified
  Kd: 84.3 µM
  stoichiometry N: 0.96

B4: TNIP1_pS123^long peptide (peptide)
peptide: SSGTS[pS]EFEVVTPEEQ
notes: FIR motif of TNIP1 with an elongated C terminus (T129-Q133); source: synthetic peptide (GL Biochem, Shanghai)
[10]; both partners purified
  Kd: 45.4 µM
  stoichiometry N: 1.03
[11]
  Kd: 43.8 µM
  stoichiometry N: 0.97
[12]
  Kd: 35 µM
  stoichiometry N: 0.98
[13]
  Kd: 45 µM
  stoichiometry N: 0.96
[14]
  Kd: 133 µM
  stoichiometry N: 0.93

B5: pCCPG1 FIR2 peptide (peptide)
peptide: TASDD[pS]DIVTLEPPK
notes: as for B3
[10]; both partners purified
  Kd: 9.3 µM
  stoichiometry N: 1.1
